Common to all, as to assay: fluorescence polarisation; cf-labeled peptide (10 µL of 40 nmol/L) added to a 2-fold dilution series (22 steps, 10 µL) of pure 70S ribosome, 50S or 30S subunit; ribosome preparation buffer (20 mmol/L HEPES-KOH, 6 mmol/L MgCl2, 30 mmol/L NH4Cl, pH 7.6); 28 ± 1 °C, 90 min; apparent Kd (average over at least two or three sites)
What all share (conditions): both partners purified

The target in test [1] is purified E. coli 30S ribosomal subunit (E. coli (endogenous in MRE600)).
The target of test [2] is purified E. coli 50S ribosomal subunit (E. coli (endogenous in MRE600), UniProt P60723 1-201; P61175 1-110; P0ADZ0 1-100; P0A7M6 1-63; P0A7J3 1-165).
In test [3] the target is purified E. coli 70S ribosome (E. coli (endogenous in BW25113), UniProt P60723 1-201; P61175 1-110; P0ADZ0 1-100; P0A7M6 1-63; P0A7J3 1-165).

[ ]: non-standard residue; d: D form. Gu = N-terminal tetramethylguanidine; Orn = NCCC[C@H](N)C(=O)O

In the case of Gu-[Orn](5(6)‑carboxyfluorescein)NNRPVYIPRPRPPHPRL-NH2 [cf-Api88 (5(6)-carboxyfluorescein-labeled Api88, Gu-ONNRPVYIPRPRPPHPRL-NH2)], the “fold weaker binding than to the 50S subunit” value in test [1] is around 23 fold. The values for the Kd in test [2] and in test [3] were 600 nM and 1800 nM, respectively.
As for Gu-[Orn](5(6)‑carboxyfluorescein)NNRPVYIPRPRPPHPRL-OH [cf-Api137 (5(6)-carboxyfluorescein-labeled Api137, Gu-ONNRPVYIPRPRPPHPRL-OH)], the “fold weaker binding than to the 50S subunit” value in test [1] is around 10 fold. Further, the Kd in test [2] stood at 2200 nM; in test [3], 4730 nM.

The values are drawn from PMC11087509, “Multimodal binding and inhibition of bacterial ribosomes by the antimicrobial peptides Api137 and Api88” (Nature Communications, 2024).
